Experiment: soluble on expression in E. coli; label from the status in PepcDB or PDB records

Sequence	soluble on expression in E. coli
MSLQVKHLLLIAILALTAACSSNKETVDENLSESQLYQQAQDDLNNKSYNSAVTKLKALESRYPFGRYAEQAQLELIYANYKNMEPEAARAAAERFIRLHPQHPNVDYAYYLKGLSSFDQDRGLLARFLPLDMTKRDPGAARDSFNEFAQLTSRFPNSRYAPDAKARMVYLRNLLAAYEVHVGHYYLKRQAYVAAANRGRYVVENFQETPAVGDGLAIMVEAYRRLGLDDLASTSLETLKLNYPDNASLKDGEFVARESEADTRSWLAKATLGLIEGGEPPPHMETQAAKDVIKQYEDAEREIPAELKPENQDHSADDEKPESDDDEDSGRSWWSYMTFGLFDEGGSHHHHHH	soluble
MSLRARYKQLVDTFAADIRTGILAPGTRLPTHRELAAREGLALVTASRVYAELEAMGLVSGETGRGTYVRETALPPGQGVDQPATAPGTLDLNFNYPALPGQAELLRSALRQLAATGDLEALLRYQPHAGRSHERATVARYLAGHGLVVEGEQVLLVSGAQHGLSTTLMALLRPGDVVAVDALTYPGFKVVAEAHGLELLAIPLSEQGPDLEAFERLCQRRRVRAVYAMPTLHNPMGWVLDLAWRQRLVAIGRAHGLLIIEDAAYAFLAQDPPAPLAALAPEITVYISGFSKNVATGLRVGYVVAPPAWVALIERAIRTSTWNTPGVMTAMACAWIEDGTVARLEHQKREDAQARQALAREALAGLAYVSHPNSYFLWLPLPEEVRADQVAMALLREKVSVSTAEPFVGAGPVPHAIRLALGSVAMADLGVALARVRQVIGRYAFEGHHHHHH	soluble
MSLRASGSGANPDKTWESRSLPIGNGSLGANILGSVAAERITLNEKTLWKGGPNTSKGAEYYWDVNKQSAGVLKEIRQAFLDEDKEKAAQLTRNNFNGLAAYEEKDETPFRFGSFTTMGELYVETGLNELRMSNYRRILSLDSAMVVVQFDKDGVQYQRKYFISYPDSVMVMKFTANQSGKQNLILSYCPNSEAKSNLRADGKDGLVYTGVLDNNGMKFAFRIKAIHKGGTLEAENDRLIVKGADEVVFLLTADTDYKMNFNPDFKDPKTYVGNDPEQTTRIMMDQAVQKGYDELYRNHEADHTALFNRVRLQLNPDISSPNLPTYQRLANYKKGTPDYQLEQLYYQFGRYLLIASSRPGNMPANLQGMWHNNLDGPWRVDYHNNINIQMNYWPACSANLSECTWPLIDFIRSLVKPGEQTAQAYFNARGWTASISANIFGFTAPLSSNMMSWNLNPTAGPWLATHIWEYYDYTRDKKFLKEIGYDLIKSSAQFAVDHLWHKPDGTYTAAPSTSPEHGPIDEGVTFAHAVVREILLDAIQASKELGIDSKERKQWEKILDKLVPYRIGRYGQLMEWSTDIDDPEDEHRHVNHLFGLHPGHTISPITTPKLAEAAKVVLEHRGDGATGWSMGWKLNQWARLQDGNHAYKLYGNLLKNGTLDNLWDTHAPFQIDGNFGGTAGITEMLLQSHMGFIQLLPALPDAWKNGSITGICAKGNFEISISWKEGQLDKATILSGSGTPCNVRYGDKTLSFSTVKGKKYEITLVGNLLKLEGHHHHHH	soluble
MSLRDLPGQTGVQFTTGGVNHFLSWKSGGERHYFTSLAFTHTNRNRTCWLYGLDYQIKEYTYENKAIPKAQFTGELGYFIPVLSDKGRNVCFRIGLSVLGGFETVNWGTSLLPDGAAVTNGDCFIYGGGLTAAFDVWLTDRIILLMQVKERAFFGTDAGNFHTQIGLGVRLIINEGHHHHHH	not soluble
MSLRERVKAHPKPADEQLLTRIRDHSISMLLNFLNSMFDGVDDSFFELANHAHTNNEQNRYFEAMREIRIKRKGIENHFQQELARLFNQPPSQHKTSESLSDNVDVDVLSLVQNDALEESVAINSMISKARANFSGSLLQFQTRVSSVYGETNEENAVNPLDPEHICKAFSDACIGLDIEIKEKLIVYKQFDRYVMGNLVECLEEANKIMIQAGVMPNLKYTAKKSRVTPRSTSDVSARPLEAQSDANGYDGAGDVFSQVQELLSALRNTASNPEQQQGDPNTGAGGRQAPPPGNVQFIADADLLSILSRLQHSVRTENLAEGPVVALDLRTAVQGLLSEESQKSGKATALDQIDEDLINLVSMLFEFILDDYNLSAPIQVLISRLQIPILKVAIRDKSFFSKPSHPARKLLNALAKAGIGWSDASEKKRDKLYEQIHRAVQRILEEFNGESELFEEIYQEFSQYLSREERKAKLVEQRTKEAEIGRVKSHKAHQVVEQILSEKIAAQPLPPVAVELLRGGWSRVMFLAYLKEDTEHRLNQCTKVVDELTWCLQPHAEVEARQRWVKVVPQLLKNLKAGLKEVSYNSAKLEHMLGELKKALTETFKQQSITSAQNDAPKPPAPVAAVIEQKLTPAIKTAVERQSEYEDAALAEYLTKIDEMECGAWIEFSLVNGTRFRCKLSTKIEDSDTYIFVNRLGLKVVEKTRGELAHELRKGRIKALEEGLLFDRAMNAVIGNLRKMSGEGHHHHHH	soluble

Reference: the DeepSol protein solubility set
